From publication PMC4358367, “Structural basis of diverse membrane target recognitions by ankyrins” (eLife, 2014)

T1: AnkR_repeats (24 ANK repeats of ankyrin-R, residues 42–853) (mouse, UniProt Q02357-6 42-853)
T1 chain: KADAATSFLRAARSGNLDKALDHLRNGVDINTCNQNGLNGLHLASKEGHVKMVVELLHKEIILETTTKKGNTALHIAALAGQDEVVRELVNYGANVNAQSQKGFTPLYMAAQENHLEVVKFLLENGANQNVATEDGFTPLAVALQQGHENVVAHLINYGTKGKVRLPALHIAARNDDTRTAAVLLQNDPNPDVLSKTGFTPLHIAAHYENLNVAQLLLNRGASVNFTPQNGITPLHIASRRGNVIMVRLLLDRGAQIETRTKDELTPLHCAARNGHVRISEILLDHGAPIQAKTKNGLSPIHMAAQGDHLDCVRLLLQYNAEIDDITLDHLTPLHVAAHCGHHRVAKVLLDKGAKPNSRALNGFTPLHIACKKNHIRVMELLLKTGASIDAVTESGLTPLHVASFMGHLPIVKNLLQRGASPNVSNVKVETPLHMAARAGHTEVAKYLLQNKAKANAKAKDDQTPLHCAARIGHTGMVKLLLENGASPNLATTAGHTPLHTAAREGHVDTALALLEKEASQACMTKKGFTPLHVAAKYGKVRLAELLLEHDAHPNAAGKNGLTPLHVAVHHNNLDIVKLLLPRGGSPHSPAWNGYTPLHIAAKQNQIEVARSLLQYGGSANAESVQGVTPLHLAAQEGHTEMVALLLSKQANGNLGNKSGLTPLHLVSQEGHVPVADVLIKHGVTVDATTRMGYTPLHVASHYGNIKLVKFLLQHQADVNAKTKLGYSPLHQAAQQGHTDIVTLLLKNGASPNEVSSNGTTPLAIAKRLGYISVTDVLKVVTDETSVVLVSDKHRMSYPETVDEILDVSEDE

B1: AnkR 1529-1672 (protein)
chain: RQSRNLKPERRHGDREYSLSPSQVNGYSSLQDELLSPASLQYALPSPLCADQYWNEVTVIDAIPLAATEHDTMLEMSDMQVWSAGLTPSLVTAEDSSLECSKAEDSDAIPEWKLEGAHSEDTQGPELGSQDLVEDDTVDSDATN
B2: AnkR 1601-1672 (protein)
chain: MLEMSDMQVWSAGLTPSLVTAEDSSLECSKAEDSDAIPEWKLEGAHSEDTQGPELGSQDLVEDDTVDSDATN
B3: AnkR 1529-1825 (protein)
chain: RQSRNLKPERRHGDREYSLSPSQVNGYSSLQDELLSPASLQYALPSPLCADQYWNEVTVIDAIPLAATEHDTMLEMSDMQVWSAGLTPSLVTAEDSSLECSKAEDSDAIPEWKLEGAHSEDTQGPELGSQDLVEDDTVDSDATNGLADLLGQEEGQRSEKKRQEVSGTEQDTETEVSLVSGQQRVHARITDSPSVRQVLDRSQARTLDWDKQGSTAVHPQEATQSSWQEEVTQGPHSFQRRITTIQGPEPGALQEYEQVLVSTREHVQRGPPETGSPKAGKEPSLWAPESAFSQEVQ
B4: AnkR 1529-1600 (protein)
chain: RQSRNLKPERRHGDREYSLSPSQVNGYSSLQDELLSPASLQYALPSPLCADQYWNEVTVIDAIPLAATEHDT

The molecules below were run against AnkG_repeats (24 ANK repeats of rat 190 kDa ankyrin-G, residues 38–855) (rat) (UniProt O70511) (assay: ITC; VP-ITC at 25°C; 50 mM Tris pH 7.5, 100 mM NaCl, 1 mM EDTA, 1 mM DTT; binding partner (AS, Nav1.2 ABD proteins, neurofascin ABD; 200–300 µM) in the syringe, ANK repeats (20–30 µM) in the cell; one-site binding model).

Row | fold weaker binding than wild-type Nav1.2 [fold] | fold weaker affinity than the entire ABD [fold] | Kd [nM] | Molecule
1 | 30 | – | – | E1112Q-Nav1.2 (ABD with E1112Q) (domain or fragment)
2 | – | 15 | – | Nav1.2_ABD-C (27-residue motif of loop 2, residues 1103–1129) (domain or fragment)
3 | – | – | 170 | Nav1.2_ABD (ankyrin binding domain of Nav1.2, residues 1035–1129) (domain or fragment)
4 | 30 | – | – | E1112A-Nav1.2 (ABD with E1112A) (domain or fragment)
5 | – | – | 210 | Nfasc_ABD (28-residue fragment of the neurofascin cytoplasmic tail, residues 1187–1214) (domain or fragment)

Target: T1, AnkR_repeats (24 ANK repeats of …)
Experiment: ITC

Row | Kd [nM] | Molecule
6 | 23000 | DAIPLAATEHDTMLEMSDMQVWSA [AnkR 1589-1612]
7 | 1100 | B1
8 | > 50000 | B2
9 | 2200 | DAIPLAATEHDTMLEMSDMQVWSAGLTPSLVTAEDS [AnkR 1589-1624]
10 | 1000 | B3
11 | > 50000 | B4
12 | 2000 | CADQYWNEVTVIDAIPLAATEHDTMLEMSDMQVWSA [AnkR 1577-1612]
